Measured values: patent US20220372542A1, “DETECTION OF ANALYTES BY PROTEIN SWITCHES” (ABBOTT DIABETES CARE INC., priority 2019, published 2022)

How the values were obtained:
[1] = Warfarin inhibition of protein switch sensors in test beaker; type: biochemical; conditions: 100 mM PBS 33° C., 10 mM NAD+; for effect of increasing warfarin concentrations on sensor signal: 5 mM glucose, 10, 30, 80, 180, 300 uM warfarin, FIGS. 12A, 12B, 13; for sensor response to glucose addition: glucose 5 mM
Procedure: Warfarin Sensor. Experimental GDH-105 and GDH-2016 glucose-responsive active areas were prepared using a single-layer active area system. The GDH was obtained from Codexis, Redwood City, Calif. The active area was coated onto a carbon working electrode in a single layer composition (Table 8). Following deposition of the active area, the active area was cured for three days at RT.
Experimental procedure. Testing of the GDH-105 and GDH-2016 sensors was conducted by immersing the electrode in a 100 mM PBS buffer solution at 33° C. NAD^+ (5 mM) supplied to a test beaker containing PBS buffer followed by the addition of glucose (1 mM).
Evolved Warfarin sensors. GDH-105, GDH-2016, GDH-2025, GDH-2026, GDH-2027, and GDH-2028 glucose-responsive active areas were prepared using a single-layer active area system. The GDH was obtained from Codexis, Redwood City, Calif. The active area (0.33 mm^2) was coated onto a carbon working electrode in a single layer composition (Table 8). Following deposition of the active area, the active area was cured for three days at room temperature.
Experimental procedure. Testing of the GDH-105, GDH-2016, GDH-2025, GDH-2026, GDH-2027, and GDH-2028 sensors was conducted by immersing the electrode in a 100 mM PBS buffer solution at 33° C. NAD^+(10 mM) supplied to a test beaker containing PBS buffer followed by the addition of glucose (5 mM).

[2] = Beaker calibration: glucose sensitivity of protein switch sensors; type: biochemical; conditions: Sensor active area 0.33 mm^2 with PVP membrane; 100 mM PBS, room temperature, 1-30 mM glucose
[3] = Beaker stability (long-term stability) of protein switch sensors; type: physicochemical; conditions: Sensor in 30 mM glucose in 100 mM PBS at 33° C., after 1 day
Procedure: Beaker Stability. The beaker stability (long-term stability) of the sensor GDH-105 and the sensors comprising the protein switches GDH-2004, GDH-2007, GDH-2008, GDH-2009, GDH-2010, GDH-2011, GDH-2015, GDH-2018, GDH-2019, GDH-2005, GDH-2013, GDH-2016, and GDH-2024 described above were evaluated in 30 mM glucose in 100 mM PBS at 33° C. as shown in FIG. 8. After 4 days, each of the signals experienced a sensor drop (decreased stability for detecting glucose) at different rates, as shown in Table 10.
Beaker Stability. The beaker stability (long-term stability) of the GDH-105, GDH-2025, GDH-2026, GDH-2027, and GDH-2028 sensors were evaluated in 30 mM glucose in 100 mM PBS at 33° C. as shown in FIG. 11. After 1 day, each of the signals experience sensor drop (decreased stability for detecting glucose) of different rates, as provided in Table 12.

B1: GDH-2028: Warfarin protein switch, SEQ ID NO: 15; mutations C96F; L252V (protein)
chain: MYPDLKGKVVAITGAASGLGKAMAIRFGKEQAKVVINYYSNKQDPNEVKEEVIKAGGEAVVVQGDVTKEEDVKNIVQTAIKEFGTLDIMINNAGLFNPVPSHEMPLKDWDKVIGTNLTGAFLGSREAIKYFVENDIKGNVINMSSVHEVIPWPLASHYTASKGGMKLMTKTLALEYAPKGIRVNNIGPGAINTTINAEKFADPKQKADVESMIPMGYIGEPEEIAAVAAWLASKEASYVTGITLFADGGMTVYPSFQAGRG
With B1 the “effect of increasing warfarin concentrations on sensor signal” value [1] was “inhibition”, the “sensor response to glucose addition” value [1] was “showed response to glucose addition” and the Sensitivity [2] was 0.09 nA/mM. The “Signal drop (1 day)” value [3] was −68%.

B2: GDH-2025: Warfarin protein switch, SEQ ID NO: 1; SEQ ID NO:11 with mutation C96F (protein)
chain: AMYPDLKGKVVAITGAASGLGKAMAIRFGKEQAKVVINYYSNKQDPNEVKEEVIKAGGEAVVVQGDVTKEEDVKNIVQTAIKEFGTLDIMINNAGLFNPVPSHEMPLKDWDKVIGTNLTGAFLGSREAIKYFVENDIKGNVINMSSVHEVIPWPLASHYTASKGGMKLMTKTLALEYAPKGIRVNNIGPGAINTTINAEKFADPKQKADVESMIPMGYIGEPEEIAAVAAWLASKEASYVTGITLFADGGMTLYPSFQAGRG
For B2, the “effect of increasing warfarin concentrations on sensor signal” value [1] was “inhibition”, the “sensor response to glucose addition” value [1] was “showed response to glucose addition” and the Sensitivity [2] was 0.32 nA/mM. For the same molecule, the “Signal drop (1 day)” value [3] was −58%.
